These results are taken from US20090137003A1.

This assay has as its target RSV protein F (recombinant or purified F protein) (respiratory syncytial virus (RSV), strain not stated). Put plainly: SPR (Biacore), Fab on recombinant antigen.

One may read the Kd as the free concentration of one partner at which half of the binding sites on the other are occupied at equilibrium, for simple one-to-one binding. In general, koff refers to a measure of how fast the partners let go of each other. By kon is commonly meant a measure of how fast the partners come together. As to “Fab fragments derived from commercially available Palivizumab (Synagis)”, the Kd amounted to 3.78 nM, the off-rate (koff) was 0.000757 s⁻¹, the kon came to 200000 M⁻¹ s⁻¹ and the t1/2 is 15 min.
